Two substances from publication PMC6082141 can be followed below.

The target of assay [1] is microtubules assembled from porcine brain tubulin (porcine) (UniProt P02550). Kind of assay: TIRF microscopy, MT-MT sliding assay.
Assay [2] shares this target. Kind of assay: single-molecule TIRF microscopy.
In assay [3] the target is carboxypeptidase A (CPA)-treated microtubules from porcine brain tubulin (porcine) (UniProt P02550). Kind of assay: TIRF microscopy, fluorescence intensity on MTs.
Assay [4] addresses microtubules assembled from porcine brain tubulin (porcine) (UniProt P02550). Kind of assay: TIRF microscopy, fluorescence intensity on MTs.

“dynein-dynactin-BicD2 co-complex (DDB) (from UniProt Q921C5 1-820; P38650 1-4644; P28023 1-1280)” yielded a lifetime (τ) of foci of two MT minus-ends brought into contact and held by DDB in assay [1] of 14.4 s. In addition, in assay [2], the dwell time at MT minus-ends, long population (τ2) amounted to 54.8 s; the percent of incoming molecules that dwell at MT minus-ends with DDB clusters was 83%; the percent of incoming molecules that dwell at bare (vacant) MT minus-ends came to 77%.

Consider “TMR-labeled p150-SNAP (from UniProt Q14203-1 1-1278) (natural protein)”, for which the integrated p150 intensity on the MT (minus background, per pixel) in assay [3] was 1100 a.u; in assay [4], 2950 a.u.
